Target: Mouse CTLA4-Fc protein (mouse)
Assay: ELISA, control VHH coated 0.5 µg/well, mouse CTLA4-Fc (biotinylated), SA-HRP; blank 0.027

Chain of Mouse CTLA4-Fc protein (mouse) (chain, as listed by the source limits assumed): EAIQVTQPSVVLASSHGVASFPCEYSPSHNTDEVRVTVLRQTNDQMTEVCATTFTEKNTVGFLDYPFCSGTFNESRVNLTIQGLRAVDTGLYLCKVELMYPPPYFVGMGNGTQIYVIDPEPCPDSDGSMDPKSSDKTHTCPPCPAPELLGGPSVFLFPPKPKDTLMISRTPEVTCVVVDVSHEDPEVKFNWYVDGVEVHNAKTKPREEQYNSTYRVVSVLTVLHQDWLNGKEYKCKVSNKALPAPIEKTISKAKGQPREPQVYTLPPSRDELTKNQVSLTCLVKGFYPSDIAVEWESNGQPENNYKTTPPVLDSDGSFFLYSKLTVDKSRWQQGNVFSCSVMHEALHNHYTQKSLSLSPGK

OD (against mouse CTLA4): 0.026 OD405
Substance: single domain antibody against other unrelated target (control) (VHH)

From patent publication US20190315864A1
